Measurements taken from PMC1483224.

T1: MutS (Escherichia coli, UniProt P23909 1-853)
T1 sequence: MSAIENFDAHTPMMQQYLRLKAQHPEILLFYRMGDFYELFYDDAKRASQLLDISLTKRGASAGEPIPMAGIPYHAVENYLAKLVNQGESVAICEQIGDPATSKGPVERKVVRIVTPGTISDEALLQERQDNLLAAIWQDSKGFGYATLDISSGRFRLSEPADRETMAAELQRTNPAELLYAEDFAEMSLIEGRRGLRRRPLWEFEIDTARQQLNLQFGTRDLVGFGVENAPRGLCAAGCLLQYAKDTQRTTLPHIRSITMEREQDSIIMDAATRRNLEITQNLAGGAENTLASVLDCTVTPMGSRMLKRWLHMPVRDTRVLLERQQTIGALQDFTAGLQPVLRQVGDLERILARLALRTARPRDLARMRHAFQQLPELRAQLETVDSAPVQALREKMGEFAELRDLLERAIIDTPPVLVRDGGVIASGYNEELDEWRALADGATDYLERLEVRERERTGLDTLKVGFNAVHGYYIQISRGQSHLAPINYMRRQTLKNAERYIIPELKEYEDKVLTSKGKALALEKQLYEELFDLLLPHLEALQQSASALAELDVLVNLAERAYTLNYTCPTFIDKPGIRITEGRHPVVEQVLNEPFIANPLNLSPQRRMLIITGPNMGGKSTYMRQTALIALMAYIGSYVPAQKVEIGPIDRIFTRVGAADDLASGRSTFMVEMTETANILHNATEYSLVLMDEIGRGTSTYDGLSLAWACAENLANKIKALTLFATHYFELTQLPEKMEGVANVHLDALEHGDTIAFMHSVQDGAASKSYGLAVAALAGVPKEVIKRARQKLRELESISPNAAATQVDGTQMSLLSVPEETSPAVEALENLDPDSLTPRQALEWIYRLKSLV

B1: GT heteroduplex (dsDNA)
DNA 1: GACGAGCCGCGCGCTAGCGTCG
DNA 2: CGACGCTAGCGTGCGGCTCGTC
B2: CT heteroduplex (dsDNA)
DNA 1: GACGAGCCGCCCGCTAGCGTCG
DNA 2: CGACGCTAGCGTGCGGCTCGTC
B3: CC heteroduplex (dsDNA)
DNA 1: GACGAGCCGCCCGCTAGCGTCG
DNA 2: CGACGCTAGCGCGCGGCTCGTC

Target: T1, MutS
Assay: impedance spectroscopy, CV

Binder | binding signal
B1 | 3380 Ohm/cm (Rct calibration slope as printed)
B2 | 1680 Ohm/cm (Rct calibration slope as printed)
B3 | 1050 Ohm/cm (Rct calibration slope as printed)
